# Experimental data as given in US20230137139A1, “BIOSYNTHESIS OF CANNABINOIDS AND C[…]” (priority 2020, published 2023).
# Residue numbers refer to the chain shown, from its start.
# B1: t865717 (protein)
# chain: MGNTTSIAGRDCLISALGGNSALAVFPNELLWTADVHEYNLNLPVTPAAITYPETAAQIAGVVKCASDYDYKVQARSGGHSFGNYGLGGADGAVVVDMKHFTQFSMDDETYVAVIGPGTTLSDVDIELYNNGKRAMAHGVCPTIKTGGHFTIGGLGPTARQWGLALDHVEEVEVVLANSSIVRASNTQNQDVFFAVKGAAANFGIVTEFKVRTEPAPGLAVQYSYTFNLGSTAEKAQFVKDWQSFISAKNLTRQFYNNMVIFDGDIILEGLFFGSKEQYDALGLEDHFAPKNPGNILVLTDWLGMVGHALEDTILKLVGNTPTWFYAKSLGFRQDTLIPSAGIDEFFEYIANHTAGTPAWFVTLSLEGGAINDVAEDATAYAHRDVLFWVQLFMVNPVGPISDTTYEFTDGLYDVLARAVPESVGHAYLGCPDPRMEDAQQKYWRTNLPRLQELKEELDPKNTFHHPQGVMPA
# B2: t865694 (protein)
# chain: B1 chain with A57E, V112E, S122N, I126A
# B3: t865726 (protein)
# chain: B1 chain with T33D, V112E, S122N, N257S
# B4: t878465 (protein)
# chain: B1 chain with V112E, S122N, N202S, P472A
# modifications: expressed in S. cerevisiae strain
# B5: t865741 (protein)
# chain: B1 chain with V112E, S122N, Y256M
# B6: t865720 (protein)
# chain: B1 chain with V112E, S122G, I126K
# B7: t865723 (protein)
# chain: B1 chain with V112E, S122N, Y129W
# B8: t865751 (protein)
# chain: B1 chain with V112E, S122N, S423A
# modifications: expressed in S. cerevisiae strain
# B9: t865736 (protein)
# chain: B1 chain with V112E, S122N, N295S
# B10: t865748 (protein)
# chain: B1 chain with Y39F, V112E, S122N
# modifications: expressed in S. cerevisiae strain
# B11: t865745 (protein)
# chain: B1 chain with V63I, V112E, S122N
# modifications: expressed in S. cerevisiae strain
# Tests used:
# [1] = system: CBCA, THCA, and CBDA production; test: In vivo TS activity assay, Example 2 protein engineering of A. niger CBCAS, cultures fed olivetolic acid; type: cell-based, S. cerevisiae; details: for average CBCA titer compared with the A. niger positive control / Mean CBCA / Mean CBDA / Mean THCA: secondary screen; for Mean CBCA / Mean CBDA / Mean THCA: olivetolic acid (Table 8); for % CBCA / % CBDA / % THCA: share of terminal cannabinoid product profile
# Experimental: (§1) An assay to detect TS activity was conducted as follows: each thawed glycerol stock of candidate CBCAS transformants was stamped into a well of YEP+4% dextrose media. Samples were incubated at 30° C. in a shaking incubator for 2 days. A portion of each of the resulting cultures was stamped into a well of YEP+4% galactose+1 mM olivetolic acid (FIG. 1 Structure 6a). Samples were incubated at 20° C. and shaken in a shaking incubator for 4 days. Every 24 hours during those 4 days, 2% galactose and 1 mM olivetolic acid were spiked into the cultures. Sodium citrate buffer adjusted to pH 5.5 was added to each well at a final concentration of 100 mM. Samples were incubated at 20° C. and shaken in a shaking incubator for 2 days. A portion of each of the resulting production cultures was stamped into a well of phosphate buffered saline (PBS). Optical measurements were taken on a plate reader, with absorbance measured at 600 nm and fluorescence at 528 nm with 485 nm excitation. Samples were incubated at 30° C. in a shaking incubator for 2 days. 100% methanol was stamped into the production cultures in half-height deepwell plates. Plates were heat sealed and frozen. Samples were then thawed for 30 min and spun down at 4° C. A portion of the supernatant was stamped into half-area 96 well plates. CBCA, THCA, and CBDA production in the samples was quantified via liquid chromatography-mass spectrometry (LC-MS).
# (§2) To determine whether engineering of the A. niger CBCAS identified in Example 1 (corresponding to SEQ ID NO: 29 (with signal peptides); SEQ ID NO: 27 (without signal peptides and including an N-terminal methionine (UniProt accession No. A0A254UC34)); or SEQ ID NO: 25 (without signal peptides and without the N-terminal methionine)), could alter CBCAS substrate specificity, product specificity and/or amounts of products produced, point mutations were generated in A. niger CBCAS and the mutant versions of the protein were expressed in S. cerevisiae. A library containing 1047 A. niger CBCAS mutants was generated and screened. As in Example 1, each CBCAS mutant in the library, as well as the enzymes expressed by positive control strains, included an N-terminal MFalpha2 signal peptide (SEQ ID NO: 16) (with a methionine residue added at the N-terminus of the MFalpha2 signal peptide) and a C-terminal HDEL signal peptide (SEQ ID NO: 17).
# Production of compounds of Formulae (9), (10), and/or (11), including compounds of Formulae (9a), (10a), and/or (11a) by strains expressing the mutated versions of A. niger CBCAS was quantified and compared to the production of the same compounds by a strain expressing wild-type A. niger CBCAS, a strain expressing a C. sativa THCAS, and a strain expressing a C. sativa CBDAS. The strains were screened using the same assay described in Example 1. Production of CBCA, THCA, and/or CBDA in the samples was quantified via LC-MS.
# (§3) Of the original 1047 library members, 55 strains were elevated to a secondary screen to verify CBCA production. The experimental protocol for the secondary screen was identical to the primary screen, except that additional biological replicates were included per strain, and replicate production cultures for each strain were separately fed 1 mM boluses of olivetolic acid or 1 mM boluses of divaric acid. All strains were screened in quadruplicate.
# [2] = system: CBCVA, THCVA, and CBDVA production; test: In vivo TS activity assay, Example 2 protein engineering of A. niger CBCAS, cultures fed divaric acid; type: cell-based, S. cerevisiae; details: for Mean CBCVA / Mean CBDVA / Mean THCVA: S. cerevisiae strains expressing A. niger CBCAS mutants; for Mean CBCVA / Mean CBDVA / Mean THCVA / average CBCVA titer compared with the A. niger positive control: secondary screen; for Mean CBCVA / Mean CBDVA / Mean THCVA / % CBCVA / % CBDVA / % THCVA: fed divaric acid; for % CBCVA / % CBDVA / % THCVA: share of terminal cannabinoid product profile
# Experimental: as §1, §2, §3
Molecule,average CBCA titer compared with the A. niger positive control [1],Mean CBCA [1],Mean CBDA [1],Mean THCA [1],% CBCA [1],% CBDA [1],% THCA [1],Mean CBCVA [2],Mean CBDVA [2],Mean THCVA [2],average CBCVA titer compared with the A. niger positive control [2],% CBCVA [2],% CBDVA [2],% THCVA [2]
B1,higher,44204.43 µg/L,9698.33 µg/L,2648.36 µg/L,78.17%,17.15%,4.68%,3668.51 µg/L,0.00 µg/L,1721.38 µg/L,higher,68.06%,0.00%,31.94%
B2,higher,43506.37 µg/L,9126.46 µg/L,2579.57 µg/L,78.80%,16.53%,4.67%,3069.69 µg/L,0.00 µg/L,1647.98 µg/L,–,65.07%,0.00%,34.93%
B3,higher,41981.73 µg/L,9985.90 µg/L,2186.01 µg/L,77.52%,18.44%,4.04%,3644.48 µg/L,0.00 µg/L,1740.51 µg/L,higher,67.68%,0.00%,32.32%
B4,higher,41094.07 µg/L,9826.17 µg/L,2184.77 µg/L,77.38%,18.50%,4.11%,4314.23 µg/L,0.00 µg/L,2144.09 µg/L,higher,66.80%,0.00%,33.20%
B5,–,15982.40 µg/L,4419.64 µg/L,957.33 µg/L,74.83%,20.69%,4.48%,4388.54 µg/L,0.00 µg/L,2033.77 µg/L,higher,68.33%,0.00%,31.67%
B6,–,27895.13 µg/L,7663.58 µg/L,1543.57 µg/L,75.18%,20.66%,4.16%,4276.65 µg/L,0.00 µg/L,2090.51 µg/L,higher,67.17%,0.00%,32.83%
B7,–,22893.08 µg/L,7334.92 µg/L,1788.74 µg/L,71.50%,22.91%,5.59%,4223.36 µg/L,0.00 µg/L,2125.21 µg/L,higher,66.52%,0.00%,33.48%
B8,–,31396.25 µg/L,8775.99 µg/L,1709.83 µg/L,74.96%,20.95%,4.08%,3998.68 µg/L,0.00 µg/L,1894.39 µg/L,higher,67.85%,0.00%,32.15%
B9,–,24918.92 µg/L,6931.79 µg/L,1690.72 µg/L,74.29%,20.67%,5.04%,3847.79 µg/L,0.00 µg/L,1963.40 µg/L,higher,66.21%,0.00%,33.79%
B10,–,21260.42 µg/L,6161.32 µg/L,1575.92 µg/L,73.32%,21.25%,5.43%,3759.89 µg/L,0.00 µg/L,1591.63 µg/L,higher,70.26%,0.00%,29.74%
B11,–,27923.31 µg/L,7360.14 µg/L,1963.25 µg/L,74.97%,19.76%,5.27%,7068.26 µg/L,0.00 µg/L,2991.05 µg/L,higher,70.27%,0.00%,29.73%
